In IntAct's records for PubMed 31515488:

B1: Nuclear pore glycoprotein p62 (Homo sapiens), P37198 (parent)
chain: MSGFNFGGTGAPTGGFTFGTAKTATTTPATGFSFSTSGTGGFNFGAPFQPATSTPSTGLFSLATQTPATQTTGFTFGTATLASGGTGFSLGIGASKLNLSNTAATPAMANPSGFGLGSSNLTNAISSTVTSSQGTAPTGFVFGPSTTSVAPATTSGGFSFTGGSTAQPSGFNIGSAGNSAQPTAPATLPFTPATPAATTAGATQPAAPTPTATITSTGPSLFASIATAPTSSATTGLSLCTPVTTAGAPTAGTQGFSLKAPGAASGTSTTTSTAATATATTTSSSSTTGFALNLKPLAPAGIPSNTAAAVTAPPGPGAAAGAAASSAMTYAQLESLINKWSLELEDQERHFLQQATQVNAWDRTLIENGEKITSLHREVEKVKLDQKRLDQELDFILSQQKELEDLLSPLEELVKEQSGTIYLQHADEEREKTYKLAENIDAQLKRMAQDLKDIIEHLNTSGAPADTSDPLQQICKILNAHMDSLQWIDQNSALLQRKVEEVTKVCEGRRKEQERSFRITFD
B2: Paraneoplastic antigen Ma2 (Homo sapiens), Q9UL42 (parent)
chain: MALALLEDWCRIMSVDEQKSLMVTGIPADFEEAEIQEVLQETLKSLGRYRLLGKIFRKQENANAVLLELLEDTDVSAIPSEVQGKGGVWKVIFKTPNQDTEFLERLNLFLEKEGQTVSGMFRALGQEGVSPATVPCISPELLAHLLGQAMAHAPQPLLPMRYRKLRVFSGSAVPAPEEESFEVWLEQATEIVKEWPVTEAEKKRWLAESLRGPALDLMHIVQADNPSISVEECLEAFKQVFGSLESRRTAQVRYLKTYQEEGEKVSAYVLRLETLLRRAVEKRAIPRRIADQVRLEQVMAGATLNQMLWCRLRELKDQGPPPSFLELMKVIREEEEEEASFENESIEEPEERDGYGRWNHEGDD
partner: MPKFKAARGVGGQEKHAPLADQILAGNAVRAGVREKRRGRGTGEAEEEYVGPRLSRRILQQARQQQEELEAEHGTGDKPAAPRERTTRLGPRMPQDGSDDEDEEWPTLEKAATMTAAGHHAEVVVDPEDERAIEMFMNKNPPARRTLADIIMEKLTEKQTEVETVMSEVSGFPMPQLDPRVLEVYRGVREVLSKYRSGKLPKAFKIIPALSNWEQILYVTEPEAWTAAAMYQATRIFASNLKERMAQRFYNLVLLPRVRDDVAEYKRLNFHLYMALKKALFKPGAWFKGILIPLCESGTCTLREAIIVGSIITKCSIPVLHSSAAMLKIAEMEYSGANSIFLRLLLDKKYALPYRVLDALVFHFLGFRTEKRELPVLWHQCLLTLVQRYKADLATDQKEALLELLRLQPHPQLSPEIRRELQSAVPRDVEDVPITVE
B3: E3 ubiquitin-protein ligase TRIM32 (Homo sapiens), Q13049 (parent)
chain: MAAAAASHLNLDALREVLECPICMESFTEEQLRPKLLHCGHTICRQCLEKLLASSINGVRCPFCSKITRITSLTQLTDNLTVLKIIDTAGLSEAVGLLMCRSCGRRLPRQFCRSCGLVLCEPCREADHQPPGHCTLPVKEAAEERRRDFGEKLTRLRELMGELQRRKAALEGVSKDLQARYKAVLQEYGHEERRVQDELARSRKFFTGSLAEVEKSNSQVVEEQSYLLNIAEVQAVSRCDYFLAKIKQADVALLEETADEEEPELTASLPRELTLQDVELLKVGHVGPLQIGQAVKKPRTVNVEDSWAMEATASAASTSVTFREMDMSPEEVVASPRASPAKQRGPEAASNIQQCLFLKKMGAKGSTPGMFNLPVSLYVTSQGEVLVADRGNYRIQVFTRKGFLKEIRRSPSGIDSFVLSFLGADLPNLTPLSVAMNCQGLIGVTDSYDNSLKVYTLDGHCVACHRSQLSKPWGITALPSGQFVVTDVEGGKLWCFTVDRGSGVVKYSCLCSAVRPKFVTCDAEGTVYFTQGLGLNLENRQNEHHLEGGFSIGSVGPDGQLGRQISHFFSENEDFRCIAGMCVDARGDLIVADSSRKEILHFPKGGGYSVLIREGLTCPVGIALTPKGQLLVLDCWDHCIKIYSYHLRRYSTP
B4: Caspase-9 (Homo sapiens), P55211 (parent)
chain: MDEADRRLLRRCRLRLVEELQVDQLWDALLSRELFRPHMIEDIQRAGSGSRRDQARQLIIDLETRGSQALPLFISCLEDTGQDMLASFLRTNRQAAKLSKPTLENLTPVVLRPEIRKPEVLRPETPRPVDIGSGGFGDVGALESLRGNADLAYILSMEPCGHCLIINNVNFCRESGLRTRTGSNIDCEKLRRRFSSLHFMVEVKGDLTAKKMVLALLELAQQDHGALDCCVVVILSHGCQASHLQFPGAVYGTDGCPVSVEKIVNIFNGTSCPSLGGKPKLFFIQACGGEQKDHGFEVASTSPEDESPGSNPEPDATPFQEGLRTFDQLDAISSLPTPSDIFVSYSTFPGFVSWRDPKSGSWYVETLDDIFEQWAHSEDLQSLLLRVANAVSVKGIYKQMPGCFNFLRKKLFFKTS

Variants of: B1
Conditions: with nup58_human NUP58, Q9BVL2
Sequence of nup58_human NUP58, Q9BVL2 (Q9BVL2 whole entry): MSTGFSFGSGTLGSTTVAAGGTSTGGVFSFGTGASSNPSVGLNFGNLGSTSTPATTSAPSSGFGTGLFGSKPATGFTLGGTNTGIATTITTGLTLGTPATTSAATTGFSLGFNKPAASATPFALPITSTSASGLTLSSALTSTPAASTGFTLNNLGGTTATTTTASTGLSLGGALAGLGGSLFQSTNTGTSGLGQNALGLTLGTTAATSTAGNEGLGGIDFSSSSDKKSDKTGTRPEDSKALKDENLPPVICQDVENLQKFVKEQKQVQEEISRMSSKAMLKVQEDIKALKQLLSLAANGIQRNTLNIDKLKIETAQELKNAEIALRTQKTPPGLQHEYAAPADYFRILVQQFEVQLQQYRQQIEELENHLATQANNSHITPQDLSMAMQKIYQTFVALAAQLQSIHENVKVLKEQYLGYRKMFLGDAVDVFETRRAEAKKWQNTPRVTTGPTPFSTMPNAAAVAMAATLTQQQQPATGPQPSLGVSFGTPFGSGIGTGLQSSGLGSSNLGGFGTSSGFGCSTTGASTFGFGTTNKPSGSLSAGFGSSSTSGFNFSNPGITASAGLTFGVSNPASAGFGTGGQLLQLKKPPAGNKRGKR

Row | effect of a mutation on the interaction | Variant
1 | with no effect | A279T

Variants of: B1
Conditions: with hsf2_human HSF2, Q03933
Sequence of hsf2_human HSF2, Q03933 (Q03933 whole entry): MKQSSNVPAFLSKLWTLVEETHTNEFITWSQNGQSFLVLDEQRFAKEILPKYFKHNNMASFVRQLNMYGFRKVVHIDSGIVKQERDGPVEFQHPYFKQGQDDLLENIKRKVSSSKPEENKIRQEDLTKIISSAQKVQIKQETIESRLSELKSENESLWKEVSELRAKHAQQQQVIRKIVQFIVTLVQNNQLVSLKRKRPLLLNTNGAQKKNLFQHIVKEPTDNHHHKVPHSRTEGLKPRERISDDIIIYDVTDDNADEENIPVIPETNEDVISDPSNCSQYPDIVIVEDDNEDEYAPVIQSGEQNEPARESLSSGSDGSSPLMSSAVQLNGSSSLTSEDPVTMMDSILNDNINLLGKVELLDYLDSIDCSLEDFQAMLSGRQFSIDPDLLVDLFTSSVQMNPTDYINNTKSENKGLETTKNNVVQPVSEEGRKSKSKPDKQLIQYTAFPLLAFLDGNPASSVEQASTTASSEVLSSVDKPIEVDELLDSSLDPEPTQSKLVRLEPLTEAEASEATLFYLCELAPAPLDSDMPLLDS

Row | effect of a mutation on the interaction | Variant
2 | with no effect | A279T

Variants of: B1
Conditions: with ntf2_human NUTF2, P61970
Sequence of ntf2_human NUTF2, P61970 (P61970 whole entry): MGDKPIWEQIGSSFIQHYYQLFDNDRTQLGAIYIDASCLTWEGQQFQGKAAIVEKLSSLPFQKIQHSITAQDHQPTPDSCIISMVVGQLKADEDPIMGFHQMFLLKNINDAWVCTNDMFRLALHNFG

Row | effect of a mutation on the interaction | Variant
3 | with no effect | A279T

Variants of: B1
Conditions: with abi2_human ABI2, Q9NYB9
Target sequence in this assay (Q9NYB9 whole entry): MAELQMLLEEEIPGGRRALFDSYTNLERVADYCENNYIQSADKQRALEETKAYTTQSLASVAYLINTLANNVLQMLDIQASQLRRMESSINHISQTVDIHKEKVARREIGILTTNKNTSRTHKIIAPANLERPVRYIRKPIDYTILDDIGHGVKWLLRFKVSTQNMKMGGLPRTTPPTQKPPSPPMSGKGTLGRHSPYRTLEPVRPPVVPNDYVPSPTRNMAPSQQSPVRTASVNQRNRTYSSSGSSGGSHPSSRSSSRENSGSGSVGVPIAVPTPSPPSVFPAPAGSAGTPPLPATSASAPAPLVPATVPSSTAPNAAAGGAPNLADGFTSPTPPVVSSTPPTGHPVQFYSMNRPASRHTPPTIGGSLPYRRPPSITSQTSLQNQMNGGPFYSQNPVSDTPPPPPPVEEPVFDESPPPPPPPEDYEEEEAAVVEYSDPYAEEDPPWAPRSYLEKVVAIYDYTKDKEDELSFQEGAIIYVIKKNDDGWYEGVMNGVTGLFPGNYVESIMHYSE

Row | effect of a mutation on the interaction | Variant
4 | with no effect | A279T

Variants of: B2
Conditions: with byst_human BYSL

Row | effect of a mutation on the interaction | Variant
5 | with no effect | E186K

Variants of: B3
Conditions: with abi2_human ABI2, Q9NYB9
Target sequence in this assay (Q9NYB9 whole entry): as above

Row | effect of a mutation on the interaction | Variant
6 | disrupting interaction strength | E547A

Variants of: B3
Conditions: with pde9a_human PDE9A

Row | effect of a mutation on the interaction | Variant
7 | disrupting interaction strength | E547A

Variants of: B3
Conditions: with sdcb1_human SDCBP

Row | effect of a mutation on the interaction | Variant
8 | disrupting interaction strength | E547A

Variants of: B4
Conditions: with birc2_human BIRC2, Q13490
Sequence of birc2_human BIRC2, Q13490 (Q13490 whole entry): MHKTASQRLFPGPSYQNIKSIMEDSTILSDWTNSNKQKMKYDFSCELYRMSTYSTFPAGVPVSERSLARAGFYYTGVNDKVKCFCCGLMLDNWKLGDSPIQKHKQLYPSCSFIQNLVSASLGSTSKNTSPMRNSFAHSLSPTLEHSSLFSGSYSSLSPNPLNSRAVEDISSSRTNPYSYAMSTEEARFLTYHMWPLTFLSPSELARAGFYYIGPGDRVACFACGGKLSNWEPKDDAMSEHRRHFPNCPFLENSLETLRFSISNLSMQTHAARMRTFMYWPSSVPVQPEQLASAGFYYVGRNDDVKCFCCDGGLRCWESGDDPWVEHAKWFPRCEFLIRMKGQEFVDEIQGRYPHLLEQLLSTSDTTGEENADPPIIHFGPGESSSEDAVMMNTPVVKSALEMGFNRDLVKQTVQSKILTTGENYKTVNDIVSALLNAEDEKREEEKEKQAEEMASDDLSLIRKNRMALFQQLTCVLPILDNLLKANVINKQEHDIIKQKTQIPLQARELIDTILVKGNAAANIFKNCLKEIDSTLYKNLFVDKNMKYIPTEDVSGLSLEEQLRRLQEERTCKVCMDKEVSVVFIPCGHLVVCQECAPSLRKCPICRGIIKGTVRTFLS

Row | effect of a mutation on the interaction | Variant
9 | with no effect | R173H
10 | disrupting interaction strength | R178C
11 | with no effect | Q221R

Variants of: B4
Conditions: with xiap_human XIAP

Row | effect of a mutation on the interaction | Variant
12 | with no effect | Q221R
